{"source": "patent US20100297623A1", "about": "(COUNCIL OF THE QUEENSLAND INSTITUTE OF MEDICAL RESEARCH, published 2010)", "proteins": {"B1": {"name": "human ssDNA binding protein 1 (hSSB1) (other)", "chain": "MTTETFVKDIKPGLKNLNLIFIVLETGRVTKTKDGHEVRTCKVADKTGSINISVWDDVGNLIQPGDIIRLTKGYASVFKGCLTLYTGRGGDLQKIGEFCMVYSEVPNFSEPNPEYSTQQAPNKAVQNDSNPSASQPTTGPSAASPASENQNGNGLSAPPGPGGGPHPPHTPSHPPSTRITRSQPNHTPAGPPGPSSNPVSNGKETRRSSKR", "notes": "also called human SSB1"}}, "biological_target": "the molecule itself", "assay": "gel filtration (self-association)"}
{"protein": "B1", "values": [{"measurement": "binding result", "value": "binds"}]}
